Assay [1] has as its target T1, human GPR20 (human, UniProt Q99678 1-358). Nature of the assay: cell-based or functional assay.
The target of assay [2] is T2, human/mouse chimeric GPR20 in which EC2 of human GPR20 was substituted with EC2 of mouse GPR20 (human, UniProt Q99678 1-358).
T2 construct: also called hGPR20_mECD2
Nature of the assay: Cell-ELISA on 293a cells transiently expressing hGPR20_mECD2. How it is done: (§1) The cells were left standing at 4° C. for 1 hour. […] The cells were left standing at 4° C. for 1 hour. The cells in the wells were washed three times with PBS (+) supplemented with 5% FBS, and thereafter, OPD chromogenic solution (which had been prepared by dissolving o-phenylenediamine dihydrochloride (Wako Pure Chemical Industries, Ltd.) and H₂O₂ in an OPD solution (0.05 M trisodium citrate, 0.1 M disodium hydrogen phosphate 12-water; pH 4.5), so that the substances became 0.4 mg/ml and 0.6% (v/v), respectively) was added in an amount of 100 μL/well to the wells. A coloring reaction was carried out with occasional stirring. Thereafter, 1 M HCl was added to the plate (100 μL/well) to terminate the coloring reaction, followed by measurement of the absorbance at 490 nm using a plate reader (ENVISION: PerkinElmer, Inc.).

The target of assay [3] is T3, mouse GPR20 (mouse, UniProt Q8BYC4 1-358).
T3 construct: whole, on cells; also called mGPR20; mouse GPR20 (NP_775541)
Nature of the assay: Cell-ELISA on 293a cells transiently expressing mouse GPR20. Here is the method: as §1

In assay [4] the target is GPR20-EGFP protein comprising human GPR20 linked at its C-terminus to EGFP (human, UniProt Q99678 1-358). Nature of the assay: cell-based or functional assay.
The target in assay [5] is T1, human GPR20. Nature of the assay: flow cytometry on 293T cells transfected with pcDNA3.1-hGPR20. Here is the method: The cells were cultured overnight under conditions of 37° C. and 5% CO₂, and thereafter, a cell suspension was prepared. To the obtained cell suspension, each humanized anti-GPR20 antibody was added, and the obtained mixture was left standing at 4° C. for 1 hour. […] The cells were left standing at 4° C. for 1 hour. The cells were washed twice with PBS supplemented with 5% FBS, and then re-suspended in PBS supplemented with 5% FBS, followed by detection using a flow cytometer (BD FACSCant II; BD Biosciences). The data was analyzed using Flowjo (Tree Star, Inc.). […] In the histograms of FIG. 24, the abscissa depicts the fluorescence intensity of PE indicating the amount of the antibody bound, and the ordinate depicts a cell count.
A general note: In flow cytometry, cells or beads pass a laser one at a time.

Where a chain is given by its changes, count along the chain named. Bounds are passed on as bounds.

T3 sequence (Q8BYC4 whole entry): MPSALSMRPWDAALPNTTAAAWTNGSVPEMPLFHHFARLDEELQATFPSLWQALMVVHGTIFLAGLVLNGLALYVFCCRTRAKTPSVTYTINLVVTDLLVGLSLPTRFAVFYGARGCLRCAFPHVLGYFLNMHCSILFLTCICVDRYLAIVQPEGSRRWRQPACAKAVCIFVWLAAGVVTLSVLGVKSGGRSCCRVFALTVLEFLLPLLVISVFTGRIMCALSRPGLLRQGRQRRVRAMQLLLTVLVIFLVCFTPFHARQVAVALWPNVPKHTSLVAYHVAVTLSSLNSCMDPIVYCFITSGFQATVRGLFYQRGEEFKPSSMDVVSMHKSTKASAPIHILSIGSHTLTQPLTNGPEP
T2 sequence (Q99678 other isoform, or with tags, fused parts or gaps mutant): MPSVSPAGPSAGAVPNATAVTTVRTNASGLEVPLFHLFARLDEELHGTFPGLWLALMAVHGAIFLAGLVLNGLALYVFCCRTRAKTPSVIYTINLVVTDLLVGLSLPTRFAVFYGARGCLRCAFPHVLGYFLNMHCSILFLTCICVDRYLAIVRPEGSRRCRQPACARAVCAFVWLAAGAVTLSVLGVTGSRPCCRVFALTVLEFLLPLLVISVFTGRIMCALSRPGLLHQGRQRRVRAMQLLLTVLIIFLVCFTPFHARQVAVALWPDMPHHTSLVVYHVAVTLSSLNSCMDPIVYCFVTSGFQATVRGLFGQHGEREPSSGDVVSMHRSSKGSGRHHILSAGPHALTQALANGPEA
T1 sequence (Q99678 whole entry): as the sequence (Q99678 other isoform, or with tags, fused parts or gaps mutant) above, with F113Y counted along it
Chain of GPR20-EGFP protein comprising human GPR20 linked at its C-terminus to EGFP (Q99678 whole entry): as the sequence (Q99678 other isoform, or with tags, fused parts or gaps mutant) above, with F113Y counted along it

B1: rat anti-GPR20 antibody 04-079 (antibody, rat IgG2b, V domains shown)
VH: QVQLQQSGAELAKPGSSVKISCKASGYTFTSYYITWIKQTTGQGLKYIGYINPGSGHTNYNEKFKGKATLTVDKSSSTAFMQLSSLTPDDSAVYYCARGAGGFLRIISKFDYWGQGVMVTVSS
VL: DTVLTQSPALAVSLGQRVTISCRASKSVSTYMHWYQQRSGQQPKLLIYSASNLESGVPSRFSGSGSGTDFTLTIDPVKADDITNYYCQQSNELPYTFGAGTKLELKR
notes: Rat IgG2b, kappa; also called 04-079 antibody
For B1, the “cell proliferation suppression rate (Rat-ZAP internalization screening)” value (“cell proliferation suppression rate” for short) in assay [1] was at least 60%. For the same molecule, the binding result in assay [2] and in assay [3] was “no binding” each time. Moreover, the “Cell survival rate (%) in internalization activity evaluation” value (“Cell survival rate (%)” below) in assay [4] was 62%.

B2: antibody-drug conjugate (12) h046-H10/L6-ADC1 (antibody, human IgG1, kappa, V domains shown)
VH: B1 VH with I20V, T35S, Y50F, F80N, V93I, S108T
VL: DTQLTQSPSSLSASVGDRVTITCRASKSVSTYIHWYQQKPGKQPKLLIYSASDRESGVPSRFSGSGSGTDFTLTISSLQPEDFANYYCQQINELPYTFGQGTKVEIKR
modifications: ADC1 exatecan drug linker on the interchain-disulfide cysteine, thioether bond; position not given; ADC1 exatecan drug linker (maleimidocaproyl-GGFG-NH-CH2-O-CH2-C(=O)-(NH-DX)) on cysteine sulfhydryls of reduced interchain disulfides, thioether bond; positions not given
notes: average drug number 5.5 (E) / 8.0 (F)
Consider B2, for which, in assay [5], the binding result is “binds”.

B3: humanized h046-H10/L6 (antibody, human IgG1, kappa, V domains shown)
VH: B1 VH with I20V, T35S, Y50F, F80N, V93I, S108T
VL: B2 VL
notes: the claims and summary say 20 to 474
Regarding B3, in assay [5], the binding result is recorded as “binds”.

B4: rat anti-GPR20 antibody 04-046 (antibody, rat IgG2b)
heavy: QVQLQQSGAELAKPGSSVKISCKASGYTFTSYYISWIKQTTGQGLKYIGFINPGSGHTNYNEKFKGKATLTVDKSSSTAFMQLSSLTPDDSAIYYCARGAGGFLRIITKFDYWGQGVMVTVSSAQTTAPSVYPLAPGCGDTTSSTVTLGCLVKGYFPEPVTVTWNSGALSSDVHTFPAVLQSGLYTLTSSVTSSTWPSQTVTCNVAHPASSTKVDKKVERRNGGIGHKCPTCPTCHKCPVPELLGGPSVFIFPPKPKDILLISQNAKVTCVVVDVSEEEPDVQFSWFVNNVEVHTAQTQPREEQYNSTFRVVSALPIQHQDWMSGKEFKCKVNNKALPSPIEKTISKPKGLVRKPQVYVMGPPTEQLTEQTVSLTCLTSGFLPNDIGVEWTSNGHIEKNYKNTEPVMDSDGSFFMYSKLNVERSRWDSRAPFVCSVVHEGLHNHHVEKSISRPPGK
light: DTVLTQSPALAVSLGQRVTISCRASKSVSTYIHWYQQRSGQQPKLLIYSASNLESGVPSRFSGSGSGTDFTLTIDPVEPDDIANYYCQQINELPYTFGAGTKLELKRADAAPTVSIFPPSTEQLATGGASVVCLMNNFYPRDISVKWKIDGTERRDGVLDSVTDQDSKDSTYSMSSTLSLTKADYESHNLYTCEVVHKTSSSPVVKSFNRNEC
notes: Rat IgG2b, kappa; also called 04-046 antibody
Take B4: the “cell proliferation suppression rate” value in assay [1] is at least 60%. In addition, the binding result in assay [2] and in assay [3] was “no binding” throughout. Further, in assay [4], the “Cell survival rate (%)” value is 57%.

B5: rat anti-GPR20 antibody 04-126 (antibody, rat IgG2b, V domains shown)
VH: B1 VH with Q5R, T35I, I37M, T41A, K46Q, I48V, A100T
VL: B1 VL with N52T, K78E, T83A
notes: Rat IgG2b, kappa; also called 04-126 antibody; 04-0126
On to B5, for which the “cell proliferation suppression rate” value in assay [1] is at least 60%. Besides, the binding result in assay [2] and in assay [3] was “no binding” throughout. In addition, in assay [4], the “Cell survival rate (%)” value was determined as 54%.

B6: antibody-drug conjugate (1) 046Ch-ADC2 (antibody, human IgG1)
heavy: not shown
light: DTVLTQSPALAVSLGQRVTISCRASKSVSTYIHWYQQRSGQQPKLLIYSASNLESGVPSRFSGSGSGTDFTLTIDPVEPDDIANYYCQQINELPYTFGAGTKLELKRAVAAPSVFIFPPSDEQLKSGTASVVCLLNNFYPREAKVQWKVDNALQSGNSQESVTEQDSKDSTYSLSSTLTLSKADYEKHKVYACEVTHQGLSSPVTKSFNRGEC
modifications: ADC2 exatecan drug linker on the interchain-disulfide cysteine, thioether bond; position not given; ADC2 exatecan drug linker (maleimide-PEG2-GGFG-NH-CH2CH2CH2-C(=O)-(NH-DX)) on cysteine sulfhydryls of reduced interchain disulfides, thioether bond; positions not given
notes: average drug number per antibody 5.6 (procedure E)
As to B6, in assay [5], the binding result is reported as “binds”.

B7: antibody-drug conjugate (2) 046Ch-ADC1 (antibody, human IgG1)
heavy: not shown
light: B6 light
modifications: ADC1 exatecan drug linker on the interchain-disulfide cysteine, thioether bond; position not given; ADC1 exatecan drug linker (maleimidocaproyl-GGFG-NH-CH2-O-CH2-C(=O)-(NH-DX)) on cysteine sulfhydryls of reduced interchain disulfides, thioether bond; positions not given
notes: as for B6
As for B7, the binding result in assay [5] was “binds”.

B8: humanized h046-H4b/L7 (antibody, human IgG1, kappa)
heavy: not shown
light: DTQLTQSPSSLSASVGDRVTITCRASKSVSTYIHWYQQKPGKQPKLLIYSAGNLESGVPSRFSGSGSGTDFTLTISSLQPEDFANYYCQQINELPYTFGQGTKVEIKRTVAAPSVFIFPPSDEQLKSGTASVVCLLNNFYPREAKVQWKVDNALQSGNSQESVTEQDSKDSTYSLSSTLTLSKADYEKHKVYACEVTHQGLSSPVTKSFNRGEC
notes: Humanized IgG1 / kappa
As to B8, the binding result in assay [5] is listed as “binds”.

B9: antibody-drug conjugate h046-H4b/L7-ADC1 (antibody, human IgG1, kappa)
heavy: not shown
light: B8 light
modifications: ADC1 exatecan drug linker on the interchain-disulfide cysteine, thioether bond; position not given; ADC1 exatecan drug linker (maleimidocaproyl-GGFG-NH-CH2-O-CH2-C(=O)-(NH-DX)) on cysteine sulfhydryls of reduced interchain disulfides, thioether bond; positions not given
notes: also called antibody-drug conjugate (3); antibody-drug conjugate (4)
In the case of B9, in assay [5], the binding result is listed as “binds”.

B10: antibody-drug conjugate (7) h046-H4b/L7-ADC2 (antibody, human IgG1, kappa)
heavy: not shown
light: B8 light
modifications: ADC2 exatecan drug linker on the interchain-disulfide cysteine, thioether bond; position not given; ADC2 exatecan drug linker (maleimide-PEG2-GGFG-NH-CH2CH2CH2-C(=O)-(NH-DX)) on cysteine sulfhydryls of reduced interchain disulfides, thioether bond; positions not given
notes: average drug number 6.1 (E) / 7.6 (F)
As for B10, in assay [5], the binding result is reported as “binds”.

B11: humanized h046-H5b/L2 (antibody, human IgG1, kappa, V domains shown)
VH: QVQLVQSGAEVKKPGASVKVSCKASGYTFTSYYISWIRQAPGQGLKYMGFINPGSGHTNYNEKFKGRVTITADKSSSTANMELSSLRSEDTAVYYCARGAGGFLRIITKFDYWGQGTLVTVSS
VL: B2 VL with T2I, L4M, D53N, R54L, N85T
notes: Humanized IgG1 / kappa
As to B11, the binding result in assay [5] was “binds”.

B12: antibody-drug conjugate (8) h046-H5b/L2-ADC2 (antibody, human IgG1, kappa, V domains shown)
VH: B11 VH
VL: B2 VL with T2I, L4M, D53N, R54L, N85T
modifications: ADC2 exatecan drug linker on the interchain-disulfide cysteine, thioether bond; position not given; ADC2 exatecan drug linker (maleimide-PEG2-GGFG-NH-CH2CH2CH2-C(=O)-(NH-DX)) on cysteine sulfhydryls of reduced interchain disulfides, thioether bond; positions not given
notes: average drug number 6.0 (E) / 7.7 (F)
B12: the binding result in assay [5] is reported as “binds”.

B13: humanized h046-H4e/L7 (antibody, human IgG1, kappa)
heavy: not shown
light: B8 light
notes: Humanized IgG1 / kappa
Regarding B13, in assay [5], the binding result is recorded as “binds”.

B14: antibody-drug conjugate h046-H4e/L7-ADC1 (antibody, human IgG1, kappa)
heavy: not shown
light: B8 light
modifications: ADC1 exatecan drug linker on the interchain-disulfide cysteine, thioether bond; position not given; ADC1 exatecan drug linker (maleimidocaproyl-GGFG-NH-CH2-O-CH2-C(=O)-(NH-DX)) on cysteine sulfhydryls of reduced interchain disulfides, thioether bond; positions not given
notes: also called antibody-drug conjugate (13); antibody-drug conjugate (14)
On to B14, for which the binding result in assay [5] is reported as “binds”.

B15: antibody-drug conjugate (5) h046-H5b/L2-ADC1 (antibody, human IgG1, kappa, V domains shown)
VH: B11 VH
VL: B2 VL with T2I, L4M, D53N, R54L, N85T
modifications: ADC1 exatecan drug linker on the interchain-disulfide cysteine, thioether bond; position not given; ADC1 exatecan drug linker (maleimidocaproyl-GGFG-NH-CH2-O-CH2-C(=O)-(NH-DX)) on cysteine sulfhydryls of reduced interchain disulfides, thioether bond; positions not given
notes: average drug number 5.4 (E) / 7.9 (F)
As to B15, in assay [5], the binding result is given as “binds”.

These data come from patent US20190225686A1 (Daiichi Sankyo, published 2019).
